Data: PMC9371698

Columns and labels:
[1] = molecular target: canine E-cadherin ectodomain K14E mutant (canine); experiment: single-molecule atomic force microscopy; biotinylated canine Ecad on streptavidin on PEG tethers on both AFM tip and coverslip; without 19A11 (−ab); pulling velocity 1 µm/s; pH 7.5, 10 mM Tris-HCl, 100 mM NaCl, 10 mM KCl, 2.5 mM CaCl2
[2] = molecular target: canine E-cadherin ectodomain K14E mutant (canine); experiment: single-molecule atomic force microscopy; as −ab, but tip and coverslip incubated with 19A11 Fab and 150 nM free 19A11 Fab in the measurement buffer (+ab); pulling velocity 1 µm/s; pH 7.5, 10 mM Tris-HCl, 100 mM NaCl, 10 mM KCl, 2.5 mM CaCl2

Substance “canine E-cadherin ectodomain K14E mutant (domain or fragment)” has an unbinding force (peak of a single Gaussian), without 19A11 [1] of 41.2 pN and an unbinding force (peak of a single Gaussian), with 150 nM 19A11 [2] of 40.3 pN.
